Experiment in all cases: cell-based or functional assay
Assay [1] addresses Human TGFβ1 (human) (UniProt P01137).
Assay [2] has as its target Human TGFβ3 (human) (UniProt P10600).
Assay [3] addresses Human TGFβ1 (human) (UniProt P01137). This is another data set of the same source.
For assay [4], the target named is Human TGFβ3 (human) (UniProt P10600). The source holds these as a separate data set.

These results are taken from patent publication US20180222956A1.

Where two headings read alike, the source gives them in different places.

Human TGFβ3 (human), sequence (P10600 301-412 limits assumed): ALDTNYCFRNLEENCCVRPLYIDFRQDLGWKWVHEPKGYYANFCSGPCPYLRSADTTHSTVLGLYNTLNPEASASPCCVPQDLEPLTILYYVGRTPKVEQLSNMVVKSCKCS
hTβRIIshort(23-159)-hG2Fc (Fc fusion), sequence (chain): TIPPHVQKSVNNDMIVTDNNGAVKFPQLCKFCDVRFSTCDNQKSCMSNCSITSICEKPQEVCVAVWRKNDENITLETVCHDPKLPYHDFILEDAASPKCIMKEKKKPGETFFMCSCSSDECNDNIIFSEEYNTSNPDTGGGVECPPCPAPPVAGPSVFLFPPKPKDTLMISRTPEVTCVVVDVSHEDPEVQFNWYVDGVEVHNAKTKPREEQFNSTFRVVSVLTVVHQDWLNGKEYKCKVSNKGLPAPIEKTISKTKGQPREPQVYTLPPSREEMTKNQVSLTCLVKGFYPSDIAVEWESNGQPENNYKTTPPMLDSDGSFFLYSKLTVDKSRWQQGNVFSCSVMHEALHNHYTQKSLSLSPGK
Human TGFβ1 (human), sequence (P01137 279-390 limits assumed): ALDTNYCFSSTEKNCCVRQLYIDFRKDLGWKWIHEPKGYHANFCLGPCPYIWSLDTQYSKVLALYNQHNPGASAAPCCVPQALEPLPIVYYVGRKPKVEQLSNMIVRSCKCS
hTβRIIshort(29-159)-hG2Fc (Fc fusion), sequence (chain): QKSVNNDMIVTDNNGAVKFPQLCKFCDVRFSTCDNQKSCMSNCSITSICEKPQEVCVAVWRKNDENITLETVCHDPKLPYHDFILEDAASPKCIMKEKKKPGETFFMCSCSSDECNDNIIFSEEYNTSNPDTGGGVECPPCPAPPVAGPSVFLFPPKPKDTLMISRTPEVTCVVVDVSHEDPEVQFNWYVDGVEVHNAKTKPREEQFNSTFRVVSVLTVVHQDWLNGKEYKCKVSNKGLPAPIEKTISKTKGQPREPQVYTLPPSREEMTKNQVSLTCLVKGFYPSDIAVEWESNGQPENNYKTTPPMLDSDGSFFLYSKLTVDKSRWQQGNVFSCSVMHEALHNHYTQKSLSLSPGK
hTβRIIshort(35-159)-hG2Fc (Fc fusion), sequence (chain): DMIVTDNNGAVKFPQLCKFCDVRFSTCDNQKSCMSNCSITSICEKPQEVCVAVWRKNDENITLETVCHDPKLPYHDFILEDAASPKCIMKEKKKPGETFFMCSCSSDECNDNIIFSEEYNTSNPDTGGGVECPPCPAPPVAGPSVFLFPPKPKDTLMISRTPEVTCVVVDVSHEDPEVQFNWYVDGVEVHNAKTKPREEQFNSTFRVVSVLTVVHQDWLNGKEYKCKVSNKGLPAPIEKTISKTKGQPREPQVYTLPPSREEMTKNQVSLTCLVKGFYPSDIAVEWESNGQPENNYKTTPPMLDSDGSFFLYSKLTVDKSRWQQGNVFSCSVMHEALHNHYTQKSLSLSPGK
hTβRIIshort(23-153)-hG2Fc (Fc fusion), sequence (chain): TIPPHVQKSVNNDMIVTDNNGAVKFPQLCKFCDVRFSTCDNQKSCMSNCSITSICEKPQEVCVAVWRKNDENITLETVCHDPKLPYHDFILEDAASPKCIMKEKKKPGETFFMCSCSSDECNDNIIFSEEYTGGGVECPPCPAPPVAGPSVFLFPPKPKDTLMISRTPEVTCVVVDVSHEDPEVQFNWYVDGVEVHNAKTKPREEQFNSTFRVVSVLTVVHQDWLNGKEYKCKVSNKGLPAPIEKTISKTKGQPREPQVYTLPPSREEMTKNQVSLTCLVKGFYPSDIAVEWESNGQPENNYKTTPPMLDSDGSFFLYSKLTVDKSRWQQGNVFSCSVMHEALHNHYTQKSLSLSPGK

Substance “hTβRIIshort(23-159/D110K)-hG2Fc (Fc fusion)” returned an IC50 (nM), A549 CAGA12 reporter gene assay, hTGFβ1 (640 pg/ml) in the assay with Human TGFβ1 (human) [1] greater than 73.6 nM.

Take hTβRIIshort(29-159)-hG2Fc (Fc fusion): the IC50 (nM), A549 CAGA12 reporter gene assay, hTGFβ3 (270 pg/ml) with Human TGFβ3 (human) [2] was greater than 7.5 nM. For the same substance, the IC50 (nM), A549 CAGA12 reporter gene assay, hTGFβ1 (640 pg/ml) with Human TGFβ1 (human) [3] amounted to 2.05 nM.

With hTβRIIshort(23-159)-hG2Fc (Fc fusion), the IC50 (nM), A549 CAGA12 reporter gene assay, hTGFβ3 (270 pg/ml) with Human TGFβ3 (human) [2] was determined as 0.37 nM; in the assay with Human TGFβ3 (human) [4], 0.14 nM. Besides, the IC50 (nM), A549 CAGA12 reporter gene assay, hTGFβ1 (640 pg/ml) with Human TGFβ1 (human) [3] came to 0.52 nM; in the assay with Human TGFβ1 (human) [1] it was 1.73 nM.

As to hTβRIIshort(23-153)-hG2Fc (Fc fusion), the IC50 (nM), A549 CAGA12 reporter gene assay, hTGFβ3 (270 pg/ml) with Human TGFβ3 (human) [4] stood at 0.14 nM. In addition, the IC50 (nM), A549 CAGA12 reporter gene assay, hTGFβ1 (640 pg/ml) with Human TGFβ1 (human) [1] turned out to be 2.62 nM.

For hTβRIIshort(35-159)-hG2Fc (Fc fusion), the IC50 (nM), A549 CAGA12 reporter gene assay, hTGFβ3 (270 pg/ml) with Human TGFβ3 (human) [2] is greater than 7.5 nM. In the assay with Human TGFβ1 (human) [3], this substance returned an IC50 (nM), A549 CAGA12 reporter gene assay, hTGFβ1 (640 pg/ml) of 2.51 nM.

On to “hTβRIIshort(23-153/N70D)-hG2Fc (Fc fusion)”, for which, in the assay with Human TGFβ1 (human) [1], the IC50 (nM), A549 CAGA12 reporter gene assay, hTGFβ1 (640 pg/ml) was 17.7 nM.
